Results from patent publication US9265844B2, “Protease degradable polypeptides and uses thereof” (THE METHODIST HOSPITAL SYSTEM, priority 2010, dated 2016).
No end group written: not given here. d = 2'-deoxy (DNA); r = 2'-OH (RNA)

What was measured:
[1] = system: HeLa cells; assay: Live cell imaging by fluorescence microscopy; type: cell-based, human; details: compared with 5L AuNPs
Experimental: Fluorescence images of live cells were acquired using a fluorescence microscopy system (Olympus, Tokyo, Japan). Briefly, HeLa and MDA-MB231 cells were collected by trypsinization, counted, and plated in a 96-well black clear-bottom culture plate (Corning Life Sciences, Pittston, Pa.) at a density of 1×10^3 cells per well. After 1 day, AuNPs (2.52×10^8 particles) were added and incubated for 12 hours. Cells were then washed three times with PBS and cultured in phenol red-free medium and imaged with a fluorescence microscopy at the time points indicated. In a separate set of experiment, cells were treated with CellTrackers, CM-DiI (2 μM), or CMTMR (7.5 μM, Invitrogen). One day after cell seeding, HeLa and MDA-MB231 cells were incubated with CM-DiI for 5 minutes at 37° C. and then further incubated at 4° C. for an additional 15 minutes according to manufacturer's protocol. After removing the medium, the cells were then incubated for an additional 15 minutes at 4° C. For CMTMR study, cells were incubated with CMTMR for 30 minutes at 37° C. and the medium was then replaced with fresh medium and incubated for a further 30 minutes. After labeling with CM-DiI or CMTMR, cells were washed three times with PBS and cultured in phenol red-free medium and imaged under a fluorescence microscopy as indicated.

[2] = system: Jurkat cells; assay: Fluorescence retention, flow cytometry; type: cell-based; details: day 4
Experimental: Jurkat cells (1.0×10^6 cells) were seeded in a 12-well culture plate (BD Falcon, San Jose, Calif.) together with 5L AuNPs (1.26×10^9 particles) in 400 μl RPMI 1640 medium and cultured for 24 hours in the dark at 37° C. in a 5% CO2 atmosphere. Cells (4×10^5) were then transferred to a FACS tube after three washes with PBS, and the FITC fluorescence signal inside the cells was measured using a BD LSR II flow cytometry (BD Biosciences, San Jose, Calif.). Remaining cells were cultured in 6-well culture plates (BD Falcon) in 4 ml RPMI 1640 medium. The procedure was repeated at different time points, up to 21 days. In a separate set of experiments, Jurkat cells (1.0×10^6) were incubated with CM-DiI (1 μM) or CMTMR (2 μM) following the manufacturer's instructions. On the designated day, the fluorescence signal of CM-DiI or CMTMR was measured using a PE filter set by a BD LSR II flow cytometry.

[3] = target: T1, Cath E (Homo sapiens, UniProt P14091); assay: Ex vivo NIRF imaging of MDA PATC-3 orthotopic tumors in mice; design: endogenous in cells; host or cells: primary patient PDAC tumour grafts (subcutaneous) and MDA PATC-3 orthotopic tumours in immunodeficient mice; details: organs excised, 48 hours after iv probe
T1 sequence (P14091 54-396): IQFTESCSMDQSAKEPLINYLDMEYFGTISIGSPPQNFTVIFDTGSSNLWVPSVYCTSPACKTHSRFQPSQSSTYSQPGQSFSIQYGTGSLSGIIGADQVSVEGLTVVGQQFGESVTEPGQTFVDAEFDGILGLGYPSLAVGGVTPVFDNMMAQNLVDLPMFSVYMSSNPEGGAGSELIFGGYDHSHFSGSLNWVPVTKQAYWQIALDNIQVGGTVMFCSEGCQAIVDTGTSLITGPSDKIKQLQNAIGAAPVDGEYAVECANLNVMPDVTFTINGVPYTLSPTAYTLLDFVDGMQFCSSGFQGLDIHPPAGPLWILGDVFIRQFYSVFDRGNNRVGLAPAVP
Experimental: To establish orthotopic tumors, mice were anesthetized as described above, and the pancreas was exposed through a left abdominal incision (laparotomy). Subconfluent MDA PATC-3 cells were detached with 0.25% trypsin-EDTA and cell viability was assessed by trypan blue exclusion. Cells (1×10^6) were resuspended in 50 uL of Hanks Balanced Salt Solution (HBSS) and directly injected into the pancreas (caudal). After tumor implantation, the pancreas was carefully returned to the peritoneal cavity and the abdomen was closed. Two months after tumor implantation, fluorescent probe was injected via tail vein and imaged 48 hours after injection.
(§1) Subcutaneous models (human material PDAC tumor grafts with mice bearing 2 tumors each n=4, MDA PATC-3 orthotopic model n=3, MPanc96 expressing low levels of Cath E (MPanc96-FG30) n=10, and MPanc96 expression high levels of Cath E (Mpanc96-Cath E) n=10) and two transgenic models with litter controls (n=5 each) were used to assess the usefulness of the Cath E-activatable imaging probe. […] White light and near infrared fluorescence (NIRF) images were acquired sequentially using Cy5.5 fluorescence filters (615-665 nm excitation filter and 695-770 nm emission filter). […] Fluorescence variations between different organs/tissues were corrected by subtracting the autofluorescence signals obtained from imaging organs/tissues of mice without any probe injected. […]

[4] = target: T1, Cath E; assay: In vivo NIRF imaging of primary patient tumor grafts in mice; design: endogenous in cells; host or cells: primary patient PDAC tumour grafts (subcutaneous) and MDA PATC-3 orthotopic tumours in immunodeficient mice; details: 48 hours after iv probe, immunodeficient mice
Experimental: Human cancer specimens used for transplantation as primary tumor grafts were obtained from patients with pancreatic invasive ductal adenocarcinoma who had undergone initial surgical resection at UT MD Anderson Cancer Center (Kim et al., Nat. Protoc. 4:1670-80 (2009)). Nude mice were anesthetized with a single intraperitoneal injection of ketamine (100 mg/kg) and xylazine (10 mg/kg). After washing with sterile PBS, tumor fragments were placed in the subcutaneous space of immunodeficient mice (Kim et al., Nat. Protoc. 4:1670-80 (2009)). When the tumor was visible, it was dissected out and transplanted into male nude mice and allowed to grow for 30 days. […]
as §1, with “The mean fluorescence flux” for “Fluorescence variations between different organs/tissues were corrected by subtracting the autofluorescence signals obtained”, “each image was defined as photons per second per centimeter squared per steradian (p/s/cm^2/sr).” for “imaging organs/tissues of mice without any probe injected.”

[5] = target: T2, Cath E (Mus musculus, UniProt P70269); assay: Ex vivo NIRF imaging of GEMM PDAC tumors; type: in vivo
T2 construct: from tissue; host or cells: pancreas, PDAC tumours and PanIN lesions of GEMMs (cLGL-KRasG12V/Bac-Ela-CreER; p53 conditional deletion/LSL-KrasG12D/Pdx1-Cre)
T2 sequence (P70269 60-397): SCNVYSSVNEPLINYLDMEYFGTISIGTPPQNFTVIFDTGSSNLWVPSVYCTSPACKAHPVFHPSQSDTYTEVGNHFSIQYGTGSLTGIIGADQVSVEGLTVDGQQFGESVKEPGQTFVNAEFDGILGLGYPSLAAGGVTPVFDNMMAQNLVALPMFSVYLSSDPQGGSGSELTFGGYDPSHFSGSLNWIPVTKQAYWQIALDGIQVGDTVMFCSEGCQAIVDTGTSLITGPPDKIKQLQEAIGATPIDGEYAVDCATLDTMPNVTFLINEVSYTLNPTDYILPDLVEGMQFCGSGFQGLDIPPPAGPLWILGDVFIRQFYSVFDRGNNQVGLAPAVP
Experimental: To assess whether Cath E activity served as a biomarker for in vivo imaging, studies were performed in human pancreatic cancer xenografts in immunodeficient mice (acquired from the National Cancer Institute with age of the mice ranging from 5-6 weeks old) and transgenic mice. Animals were housed at the MD Anderson Cancer Center animal facility. Mice used for optical imaging studies were fed with a chlorophyll-free diet. Genetic PanINs and PDAC mouse models were developed by crossing cLGL-KRas^G12V with Bac-Ela-CreER mice as described previously (Ji et al., Gastroenterology 137:1072-82 (2009)). These animals developed PanINs at 2 months and PDAC by ˜6 months. […] PDAC in these mice developed in 6-8 weeks after birth (Bardeesy et al., Proc. Natl. Acad. Sci. USA 103:5947-52 (2006)). Littermates without PDAC served as controls. LSL-KRas^G12D, p53 floxed, and Pdx-1-Cre genetic mice were obtained from the Mouse Models for Human Cancer Consortium Repository (Rockville, Md.).
Subcutaneous models (human material PDAC tumor grafts with mice bearing 2 tumors each n=4, MDA PATC-3 orthotopic model n=3, MPanc96 expressing low levels of Cath E (MPanc96-FG30) n=10, and MPanc96 expression high levels of Cath E (Mpanc96-Cath E) n=10) and two transgenic models with litter controls (n=5 each) were used to assess the usefulness of the Cath E-activatable imaging probe. Animals were injected with a single dose of the optical imaging probe (1 nmol/100 μl PBS) or saline (controls) intravenously through tail vein using a 30 gauge syringe needle. The anesthetized mice were placed in the heated imaging platform of IVIS-100/Spectrum optical imaging systems (Xenogen/Caliper, Mountain View, Calif.). White light and near infrared fluorescence (NIRF) images were acquired sequentially using Cy5.5 fluorescence filters (615-665 nm excitation filter and 695-770 nm emission filter). Mice were imaged 48 hours post probe intravenous injection. Mice were sacrificed and organs/tissues were excised and rinsed with PBS then imaged for their associated NIRF. Fluorescence variations between different organs/tissues were corrected by subtracting the autofluorescence signals obtained from imaging organs/tissues of mice without any probe injected. General illumination setting and image acquisition parameters were: epi-illumination; 0.5 sec. exposure time; f/stop=2; binning (HR)4; field of view (FOV=12.9 cm or 6.5 cm width and height). The mean fluorescence flux from each image was defined as photons per second per centimeter squared per steradian (p/s/cm^2/sr). Acquired images were analyzed using Living Image 3.1 software (Xenogen/Caliper, Alameda, Calif.). Fluorescence contrast, defined as radiance, was quantified using identical size regions of interest (ROI).

[6] = target: T2, Cath E; assay: Ex vivo NIRF imaging of GEMM pancreas with PanIN lesions; type: in vivo; details: 48 hours after probe injection, 2 months old mice
Experimental: To assess whether Cath E activity served as a biomarker for in vivo imaging, studies were performed in human pancreatic cancer xenografts in immunodeficient mice (acquired from the National Cancer Institute with age of the mice ranging from 5-6 weeks old) and transgenic mice. Animals were housed at the MD Anderson Cancer Center animal facility. Mice used for optical imaging studies were fed with a chlorophyll-free diet. Genetic PanINs and PDAC mouse models were developed by crossing cLGL-KRas^G12V with Bac-Ela-CreER mice as described previously (Ji et al., Gastroenterology 137:1072-82 (2009)). These animals developed PanINs at 2 months and PDAC by ˜6 months. […]
as §1, with “The mean fluorescence flux” for “Fluorescence variations between different organs/tissues were corrected by subtracting the autofluorescence signals obtained”, “each image was defined as photons per second per centimeter squared per steradian (p/s/cm^2/sr).” for “imaging organs/tissues of mice without any probe injected.”

[7] = system: firefly luciferase in MDA-MB231-luc2 cells; assay: Luciferase gene silencing, bioluminescence; type: cell-based, human; details: 5 days, same conditions
Experimental: For the examination of the gene silencing effect, bioluminescence measurement was performed after incubating with various multilayered AuNPs. Cells were seeded in a 96-well black clear bottom culture plate at a density of 2.5×10^3 (or 1.25×10^4 of LNCaP-luc2) cells per well. One day later, different sRAuNP (1.26×10^8 particles) were added to each well and cultured for an additional 24 hours. The cells were further cultured in phenol red free medium for another 5 days. Manufacturer's direction was followed for the transfection with Lipofectamine. Bioluminescence measurement was performed using IVIS 200 (Caliper) immediately after addition of 125 μg mL^−1 of D-Luciferin (Regis).

## CCCCCCCCCCCCCCCCCCN1C(=CC=CC2=[N+](CCCCCCCCCCCCCCCCCC)c3ccccc3C2(C)C)C(C)(C)c2cc(CNC(=O)c3ccc(CCl)cc3)ccc21.[Cl-] [CM-DiI]
[1]
  signal strength: much weaker than that of the 5L AuNPs
[2]
  fluorescence intensity, % of the original intensity: 8%

## Cath E-activatable imaging probe: Cy5.5-labeled Ala-Gly-Phe-Ser-Leu-Pro-Ala-Gly-CysCONH2 (SEQ ID NO:29) loaded on D-polyethylene glycol protected grafted copolymer (DPGC) (AGFSLPAGC-NH2; also: Cy5.5 label, place not given here, loaded on D-polyethylene glycol protected grafted copolymer (DPGC))
[3]
  fluorescence signal at orthotopic primary cell tumors: strong signal specifically localized to the tumors in the pancreas
[4]
  fluorescence signal at subcutaneous patient tumor grafts: strong specific fluorescence signal localized to the implanted tumor grafts
[5]; 48 hours after 1 nmol probe iv, pooled GEMMs
  increase in fluorescence in pancreas tumors compared to normal pancreas: ~15 fold
[5]; 48 hours after probe
  tumor to non-tumor signal ratio, tumor/bone: 2.6
  tumor to non-tumor signal ratio, tumor/kidney: 1.9
  tumor to non-tumor signal ratio, tumor/lung: 2.9
  tumor to non-tumor signal ratio, tumor/muscle: 5.5
  tumor to non-tumor signal ratio, tumor/normal pancreas: 2.2
  tumor to non-tumor signal ratio, tumor/small intestine: 1.7
  tumor to non-tumor signal ratio, tumor/spleen: 3.9
[6]
  increase in fluorescence in pancreas with PanIN lesions compared to normal pancreas: ~3 fold

## Free unformulated siRNA: siRNA against luciferase, SEQ ID NO:17/18, unformulated (chain 1 CGUACGCGGAAUACUUCGATT; chain 2 UCGAAGUAUUCCGCGUACGTT; sugars from the 5' end r19 d2, backbone not given here)
[7]
  silencing effect: didn't show any appreciable effect
